Assay results as given in patent US20240019424A1.
pKd: −log10 of the molar value.

What was measured:
[1] = molecular target: biotinylated single chain human FcRn (beta-2-microglobulin-human FcRn fusion polypeptide with (GGGGS)4-peptidic linker and C-terminal His(10)-Avi-tag) (human) (UniProt P61769); assay: SPR, scFcRn on C1 chip, Interaction Map spot; 400 mM NaCl; intermolecular
[2] = molecular target: biotinylated single chain human FcRn (beta-2-microglobulin-human FcRn fusion polypeptide with (GGGGS)4-peptidic linker and C-terminal His(10)-Avi-tag) (human) (UniProt P61769); assay: SPR, scFcRn on C1 chip, Interaction Map spot; 400 mM NaCl; intramolecular
[3] = molecular target: biotinylated single chain human FcRn (beta-2-microglobulin-human FcRn fusion polypeptide with (GGGGS)4-peptidic linker and C-terminal His(10)-Avi-tag) (human) (UniProt P61769); assay: SPR, scFcRn on C1 chip, Interaction Map spot; 150 mM NaCl; intermolecular (FIG. 16 spot 2)
[4] = molecular target: biotinylated single chain human FcRn (beta-2-microglobulin-human FcRn fusion polypeptide with (GGGGS)4-peptidic linker and C-terminal His(10)-Avi-tag) (human) (UniProt P61769); assay: SPR, scFcRn on C1 chip, Interaction Map spot; 150 mM NaCl; intramolecular (FIG. 16 spot 1)
[5] = molecular target: biotinylated single chain human FcRn (beta-2-microglobulin-human FcRn fusion polypeptide with (GGGGS)4-peptidic linker and C-terminal His(10)-Avi-tag) (human) (UniProt P61769); assay: SPR, C1 chip, scFcRn about 80 RU, Interaction Map spot; 150 mM NaCl; intramolecular binding 1+2
[6] = molecular target: biotinylated single chain human FcRn (beta-2-microglobulin-human FcRn fusion polypeptide with (GGGGS)4-peptidic linker and C-terminal His(10)-Avi-tag) (human) (UniProt P61769); assay: SPR, C1 chip, scFcRn about 80 RU, Interaction Map spot; 400 mM NaCl; intramolecular binding 1+2
[7] = molecular target: biotinylated single chain human FcRn (beta-2-microglobulin-human FcRn fusion polypeptide with (GGGGS)4-peptidic linker and C-terminal His(10)-Avi-tag) (human) (UniProt P61769); assay: SPR, C1 chip, scFcRn about 80 RU, Interaction Map spot; 150 mM NaCl; intermolecular binding 1+1′
[8] = molecular target: biotinylated single chain human FcRn (beta-2-microglobulin-human FcRn fusion polypeptide with (GGGGS)4-peptidic linker and C-terminal His(10)-Avi-tag) (human) (UniProt P61769); assay: SPR, C1 chip, scFcRn about 80 RU, Interaction Map spot; 150 mM NaCl; intermolecular binding 1+2′
[9] = molecular target: biotinylated single chain human FcRn (beta-2-microglobulin-human FcRn fusion polypeptide with (GGGGS)4-peptidic linker and C-terminal His(10)-Avi-tag) (human) (UniProt P61769); assay: SPR, C1 chip, scFcRn about 80 RU, Interaction Map spot; 400 mM NaCl; intermolecular binding 1+1′
[10] = molecular target: biotinylated single chain human FcRn (beta-2-microglobulin-human FcRn fusion polypeptide with (GGGGS)4-peptidic linker and C-terminal His(10)-Avi-tag) (human) (UniProt P61769); assay: SPR, C1 chip, scFcRn about 80 RU, Interaction Map spot; 400 mM NaCl; intermolecular binding 1+2′
[11] = molecular target: biotinylated single chain human FcRn (beta-2-microglobulin-human FcRn fusion polypeptide with (GGGGS)4-peptidic linker and C-terminal His(10)-Avi-tag) (human) (UniProt P61769); assay: SPR, C1 chip, scFcRn about 80 RU, Interaction Map spot; 150 mM NaCl; intramolecular binding 1+2+1+2
[12] = molecular target: biotinylated single chain human FcRn (beta-2-microglobulin-human FcRn fusion polypeptide with (GGGGS)4-peptidic linker and C-terminal His(10)-Avi-tag) (human) (UniProt P61769); assay: SPR, C1 chip, scFcRn about 80 RU, Interaction Map spot; 400 mM NaCl; intramolecular binding 1+2+1+2
[13] = molecular target: biotinylated single chain human FcRn (beta-2-microglobulin-human FcRn fusion polypeptide with (GGGGS)4-peptidic linker and C-terminal His(10)-Avi-tag) (human) (UniProt P61769); assay: SPR, C1 chip, scFcRn about 80 RU, Interaction Map spot; 400 mM NaCl and 20% (w/w) ethylene glycol; intramolecular binding 1+2
[14] = molecular target: biotinylated single chain human FcRn (beta-2-microglobulin-human FcRn fusion polypeptide with (GGGGS)4-peptidic linker and C-terminal His(10)-Avi-tag) (human) (UniProt P61769); assay: SPR, C1 chip, scFcRn about 80 RU, Interaction Map spot; 400 mM NaCl and 20% (w/w) ethylene glycol; intermolecular binding 1+1′
[15] = molecular target: biotinylated single chain human FcRn (beta-2-microglobulin-human FcRn fusion polypeptide with (GGGGS)4-peptidic linker and C-terminal His(10)-Avi-tag) (human) (UniProt P61769); assay: SPR, C1 chip, scFcRn about 80 RU, Interaction Map spot; 400 mM NaCl; intermolecular
[16] = molecular target: biotinylated single chain human FcRn (beta-2-microglobulin-human FcRn fusion polypeptide with (GGGGS)4-peptidic linker and C-terminal His(10)-Avi-tag) (human) (UniProt P61769); assay: SPR, C1 chip, scFcRn about 80 RU, Interaction Map spot; 400 mM NaCl; intramolecular
[17] = molecular target: biotinylated single chain human FcRn (beta-2-microglobulin-human FcRn fusion polypeptide with (GGGGS)4-peptidic linker and C-terminal His(10)-Avi-tag) (human) (UniProt P61769); assay: SPR, C1 chip, scFcRn amine-coupled about 80 RU, antibody as analyte, Interaction Map spot; 150 mM NaCl; intermolecular (FIG. 16 spot 2)
[18] = molecular target: biotinylated single chain human FcRn (beta-2-microglobulin-human FcRn fusion polypeptide with (GGGGS)4-peptidic linker and C-terminal His(10)-Avi-tag) (human) (UniProt P61769); assay: SPR, C1 chip, scFcRn amine-coupled about 80 RU, antibody as analyte, Interaction Map spot; 150 mM NaCl; intramolecular (FIG. 16 spot 1)
[19] = molecular target: biotinylated single chain human FcRn (beta-2-microglobulin-human FcRn fusion polypeptide with (GGGGS)4-peptidic linker and C-terminal His(10)-Avi-tag) (human) (UniProt P61769); assay: SPR, scFcRn on C1 chip, Interaction Map spot; 400 mM NaCl; intermolecular, first of two spots
[20] = molecular target: biotinylated single chain human FcRn (beta-2-microglobulin-human FcRn fusion polypeptide with (GGGGS)4-peptidic linker and C-terminal His(10)-Avi-tag) (human) (UniProt P61769); assay: SPR, scFcRn on C1 chip, Interaction Map spot; 400 mM NaCl; intermolecular, second of two spots

biotinylated single chain human FcRn (beta-2-microglobulin-human FcRn fusion polypeptide with (GGGGS)4-peptidic linker and C-terminal His(10)-Avi-tag) (human), sequence (P61769 other isoform, or with tags, fused parts or gaps limits assumed): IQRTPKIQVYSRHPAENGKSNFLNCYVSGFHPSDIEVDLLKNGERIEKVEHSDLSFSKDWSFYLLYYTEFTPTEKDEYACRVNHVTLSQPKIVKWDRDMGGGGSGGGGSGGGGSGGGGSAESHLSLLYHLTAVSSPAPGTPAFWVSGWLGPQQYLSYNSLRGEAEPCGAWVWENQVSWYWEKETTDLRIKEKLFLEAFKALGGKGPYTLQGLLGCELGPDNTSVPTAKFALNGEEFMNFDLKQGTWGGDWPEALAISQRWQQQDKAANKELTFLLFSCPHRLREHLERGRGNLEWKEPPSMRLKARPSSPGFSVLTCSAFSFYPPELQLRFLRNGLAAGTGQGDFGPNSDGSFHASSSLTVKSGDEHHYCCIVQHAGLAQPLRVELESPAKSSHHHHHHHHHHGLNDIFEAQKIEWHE

Row | Substance | pKd [2] | pKd [3] | pKd [4] | pKd [5] | pKd [6] | pKd [7] | pKd [8] | pKd [9] | pKd [11] | pKd [12] | also measured
1 | asymmetric antibody with the mutations I253A/H310A/H435A in one Fc-region polypeptide and the mutations M252Y/S254T/T256E in the respective other Fc-region polypeptide (from UniProt P01857 104-330; P01857 104-330) | 6.78 | 8.33 | 6.74 | – | – | – | – | – | – | – | pKd [1]: 8.21
2 | anti-digoxygenin Fabs connected to a wild-type IgG1 Fc-region (from UniProt P01857 104-330) (antibody) | – | – | – | 6.42 | 6.08 | 6.90 | 8.24 | 7.00 | 9.80 | 9.48 | pKd [10]: 8.32; pKd [13]: 5.94; pKd [14]: 7.12
3 | anti-digoxygenin-Fabs added to the Fc-region with a single FcRn binding site (mutations I253A/H310A/H435A in one Fc-region polypeptide and wild-type in the respective other Fc-region polypeptide) (from UniProt P01857 104-330; P01857 104-330) (antibody) | – | – | – | – | – | – | – | – | – | – | pKd [15]: 7.22; pKd [16]: 5.97; pKd [17]: 7.69; pKd [18]: 5.90
4 | anti-digoxygenin Fabs connected to an IgG1 Fc-region with the mutations M252Y/S254T/T256E in both Fc-region polypeptides (from UniProt P01857 104-330) (antibody) | – | – | – | 7.04 | 7.04 | – | – | – | – | 8.80 | –
5 | anti-digoxygenin Fabs connected to an IgG1 Fc-region with the mutations T307H/N434H in both Fc-region polypeptides (from UniProt P01857 104-330) (antibody) | – | – | – | 6.75 | 6.81 | 7.15 | 8.52 | 7.60 | 9.92 | 9.89 | –
6 | asymmetric antibody with the mutations I253A/H310A/H435A in one Fc-region polypeptide and the mutations T307H/N434H in the respective other Fc-region polypeptide (from UniProt P01857 104-330; P01857 104-330) | 6.49 | 7.98 | 6.41 | – | – | – | – | – | – | – | pKd [19]: 8.37; pKd [20]: 7.41
